Results on seven molecules are retold here after patent US20220332811A1 (NOVAROCK BIOTHERAPEUTICS, published 2022).

Experiment [1] addresses T1, recombinant human IL-23 (p19/p40 heterodimer) (human, UniProt Q9NPF7 20-189; P29460 23-328).
T1 sequence (looked up) 1: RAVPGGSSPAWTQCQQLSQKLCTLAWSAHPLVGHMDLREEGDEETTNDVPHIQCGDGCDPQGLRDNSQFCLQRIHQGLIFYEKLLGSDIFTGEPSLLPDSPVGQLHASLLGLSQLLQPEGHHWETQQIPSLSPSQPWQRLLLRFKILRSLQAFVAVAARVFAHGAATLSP
T1 sequence (looked up) 2: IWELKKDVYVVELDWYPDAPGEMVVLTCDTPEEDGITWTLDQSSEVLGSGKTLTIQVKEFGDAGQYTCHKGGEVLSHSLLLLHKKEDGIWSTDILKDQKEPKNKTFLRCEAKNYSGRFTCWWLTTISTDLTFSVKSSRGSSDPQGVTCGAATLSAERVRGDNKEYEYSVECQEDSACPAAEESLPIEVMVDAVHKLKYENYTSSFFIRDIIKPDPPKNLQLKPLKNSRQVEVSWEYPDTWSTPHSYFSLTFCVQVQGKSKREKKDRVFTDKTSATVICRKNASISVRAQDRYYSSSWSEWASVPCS
The experiment in a line: cell-based or functional assay.

In experiment [2] the target is T1, recombinant human IL-23 (p19/p40 …). The experiment in a line: SPR (BIAcore 3000); antibody captured on anti-mouse IgG CM5 chip, hIL-23 0.156-40 nM, 1:1 global fit. As for the experimental part:
To ensure accurate measurements of the KD and IC50 endpoints in binding and functional assays, the antibodies were purified from the hybridoma culture supernatants prior to testing. The binding kinetics of the disclosed anti-IL-23p19-specific antibodies to recombinant human IL-23 was determined by Surface plasmon resonance (SPR) using BIAcore 3000 system docked with a CM5 chip previously immobilized via amine coupling chemistry with anti-mouse IgG antibody (GE Cat No. BR-1008-38). Flow cell 1 remained unmodified to serve as a reference cell for subtraction of systematic instrument noise and drift. Fc2-1 detection was run with double blanking (Fc1 and blank analyte buffer). Antibody samples were diluted to 50 μg/mL in HBS-EP (GE, catalog no: BR1001-88) and injected at a flow rate of 10 uL/minute for 1 minute. Next, hIL-23 (R&D systems, catalog no: 1290-IL/CF) diluted to 0.156-40 nM was injected at 50 μL/minute for 2 minutes, followed by 10 minutes dissociation. Data were analyzed in BIAEvalution software (GE Healthcare) by 1:1 binding model with global fit to determine apparent binding kinetics.
(In general: In SPR one partner is held on a chip, and binding of the other changes the refractive index at the surface.)

The target in experiment [3] is T2, human IL-12 protein (human, UniProt P29459 23-219; P29460 23-328).
T2 construct: Recombinant protein; also called hIL12; hIL-12
T2 sequence (looked up) 1: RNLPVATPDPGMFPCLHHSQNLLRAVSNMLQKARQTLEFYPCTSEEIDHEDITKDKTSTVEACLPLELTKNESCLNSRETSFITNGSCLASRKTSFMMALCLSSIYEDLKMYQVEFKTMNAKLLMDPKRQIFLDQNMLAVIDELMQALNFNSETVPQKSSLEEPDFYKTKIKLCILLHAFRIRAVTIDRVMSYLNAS
T2 sequence (looked up) 2: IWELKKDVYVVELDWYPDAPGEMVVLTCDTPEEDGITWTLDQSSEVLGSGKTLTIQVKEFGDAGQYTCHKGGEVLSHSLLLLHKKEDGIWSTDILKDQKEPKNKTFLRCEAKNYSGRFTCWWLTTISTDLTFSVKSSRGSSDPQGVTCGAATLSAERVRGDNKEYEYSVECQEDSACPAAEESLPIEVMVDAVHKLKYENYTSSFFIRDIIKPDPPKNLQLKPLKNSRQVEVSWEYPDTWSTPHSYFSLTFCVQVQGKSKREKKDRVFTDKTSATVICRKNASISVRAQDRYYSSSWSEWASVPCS
The experiment in a line: SPR (BIAcore); antibody captured on anti-Fc chip, antigen injected. The protocol:
(§1) Binding of anti-IL-23p19-specific antibodies to IL-23 proteins was analyzed by Surface plasmon resonance (SPR) determined by BIAcore. Briefly, serial dilutions of the anti-IL-23p19 antibodies or the control antibodies were captured on an anti-mouse or human Fc chip (s) that were immobilized on the CM5 chip using amine coupling kit (GE Healthcare, Catalog NO: BR-1000-50, LOT NO: 2087295).
(§2) Next, serial dilutions of IL-23 recombinant protein, human p19/mouse p40 heterodimer protein, human IL-12 protein and human p40 subunit protein in the running buffer containing 10 mM HEPES, 150 mM NaCl, 3 mM EDTA, 0.005% Tween 20, pH 7.4, were injected at 50 μl/minute over immobilized antibody for 1 minute followed by 2 minutes dissociation. Each injection was followed by a regeneration step with a 60-second pulse of 10 mM Glycine-HCl, pH 1.7 buffer. Fitting of experimental data was done with BIAevaluation software (GE Healthcare), fit with a Langmuir 1:1 model to determine apparent binding.

Experiment [4] deals with T3, human p40 subunit protein (human, UniProt P29460 23-328).
T3 construct: p40 subunit alone; also called hp40
T3 sequence (looked up): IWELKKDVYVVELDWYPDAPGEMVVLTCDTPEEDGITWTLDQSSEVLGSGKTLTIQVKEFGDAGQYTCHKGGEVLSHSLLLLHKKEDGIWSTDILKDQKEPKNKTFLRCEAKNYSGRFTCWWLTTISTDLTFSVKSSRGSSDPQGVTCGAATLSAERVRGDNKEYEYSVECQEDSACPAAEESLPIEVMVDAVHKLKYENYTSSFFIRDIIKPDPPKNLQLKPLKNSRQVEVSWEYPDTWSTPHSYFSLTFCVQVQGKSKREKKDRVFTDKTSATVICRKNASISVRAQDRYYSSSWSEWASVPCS
The description is as above. As for the experimental part:
as §1, §2

In experiment [5] the target is T2, human IL-12 protein. The experiment in a line: ELISA; antigen coated directly on plate. The protocol: (§3) The binding specificity of the disclosed anti-IL-23p19 antibodies were also assessed by ELISA. Briefly, biotinylated IL-23 were captured via streptavidin coated ELISA plates. Human p19/mouse p40, human IL-12 and human p40 subunit were directly coated to ELISA plates. Purified antibodies were then added to the plates followed by detection by goat-anti-mouse IgG-HRP (Jackson ImmunoResearch, catalog no: 115-036-071, LOT NO: 147271). After addition of ABTS substrate (Moss Inc., catalog no: ABTS-1000, LOT NO: 03086202), ELISA plates were read using an ELISA plate reader (Biotek). The controls depicted in FIG. 3: PC1 refers to a reference antibody (known to be a p19 specific antibody, Biointron, LOT NO:20180926A04); PC2 refers to a reference antibody (known to be a p40 specific antibody, Biointron, LOT NO: 20180925A07); PC3 refers to a reference antibody (MT155, known as a p19 specific antibody from Mabtech, catalog no: 3457-6-100, code: 3457-6-1000), the negative controls are human IgG4 (Dendritics, catalog no: DDXCHO4P-100, LOT NO: DDXCH04-028) and the mouse IgG2a (generated by Novarock Biotherapeutics).
For orientation: ELISA stands for enzyme-linked immunosorbent assay.

The target in experiment [6] is T3, human p40 subunit protein. The experiment in a line: ELISA; antigen coated directly on plate. As for the experimental part: as §3
In experiment [7] the target is T1, recombinant human IL-23 (p19/p40 …). In words: SPR (BIAcore 3000); captured antibody, hIL-23 0.156-40 nM, 1:1 global fit.

B1: Hu-5 18006B (antibody, IgG2b, V domains shown)
VH: QLQLQESGPGLVKPSETLSLTCTVSGGSISSSSFYWGWIRQPPGKGLEWIGSIYYSGSTYYNPSLKSRVTISVDTSKNQFSLKLSSVTAADTAVYFCARHGVRGVIPHFDYWGQGTLVTVSS
VL: QTVLTQEPSFSVSPGGTVTLTCGLNSGSVSTIYYPSWYQQTPGQAPRALIYSTNTRSSGVPDRFSGSILGNKAALTITGAQADDESDYYCVLFLGSGLVFGGGTKLTVL
notes: Purified from hybridoma
The term Kd denotes the free concentration of one partner at which half of the binding sites on the other are occupied at equilibrium, for simple one-to-one binding. Usually koff stands for a measure of how fast the partners let go of each other. By kon is commonly meant the second-order rate constant of association. Take B1: in experiment [1], the “IC50 pM, STAT3 activation in DB reporter cells” value (“IC50 pM, STAT3 activation” for short) was 226 pM and the “Top % of inhibition, STAT3 activation in DB reporter cells” value (“Top % of inhibition, STAT3 activation” below) was 99%. In experiment [2], the Kd was determined as 0.0662 nM, the off-rate (koff) worked out at 9.89e-05 s⁻¹ and the kon came out at 1.49e+06 M⁻¹ s⁻¹. Further, in the experiment with human IL-12 protein [3], the binding result is listed as “no binding”. In addition, the binding result in experiment [4] is “no binding”.

B2: Hu-6 18006B (purified from hybridoma) (antibody, V domains shown)
VH: QVQLVQSGAEVKKPGASVKVSCKTSGYTFTYYGISWVRQAPGQGLEWMGLISAYNGNTNYGQKVQGRVTMTTDTSTSTAYMELRSLRSDDTAVYYCVTENINWRDAFDIWGQGTMVTVSS
VL: EIVLTQSPDFQSVTPKEKVTITCRASQTIGSSLHWYQQKPDQSPKLLIKYASQSISGVPSRFSGSGSGTDFTLTINSLEAEDAAAYYCHQSSSLPYTFGQGTKLEIK
With B2, in experiment [1], the “IC50 pM, STAT3 activation” value amounted to 60.5 pM and the “Top % of inhibition, STAT3 activation” value was determined as 99%.

B3: Hu-4 18006B (purified from hybridoma) (antibody, IgG2c, V domains shown)
VH: QVHLVQSGAEVKKPGASVKVSCKASGYTFSSYGINWVRQAPGQGLEWMGWISAYSGNTDYSQHLQGRVTMTTDTSTNTAYMELRSLRSDDTAVYYCARASANWYDYFDPWGQGTLVTVSS
VL: EIVLTQSPDFQSVTPKEKVTITCRASQTIGGSLHWYQQKPDQSPKLLITYASQSFSGVPSRFSGSGSGTDFTLTIHSLEAEDAATYYCHQSSILPYTFGQGTKLEIK
Regarding B3, in the experiment with human IL-12 protein [5], the binding result was “no binding”. The binding result in experiment [6] is “no binding”. In addition, in experiment [1], the “IC50 pM, STAT3 activation” value amounted to 168 pM and the “Top % of inhibition, STAT3 activation” value is 99%.

B4: Hu-4 18006B** (recombinant, hIgG4) (antibody, V domains shown)
VH: QVHLVQSGAEVKKPGASVKVSCKASGYTFSSYGINWVRQAPGQGLEWMGWISAYSGNTDYSQHLQGRVTMTTDTSTNTAYMELRSLRSDDTAVYYCARASANWYDYFDPWGQGTLVTVSS
VL: EIVLTQSPDFQSVTPKEKVTITCRASQTIGGSLHWYQQKPDQSPKLLITYASQSFSGVPSRFSGSGSGTDFTLTIHSLEAEDAATYYCHQSSILPYTFGQGTKLEIK
On to B4, for which, in experiment [1], the “IC50 pM, STAT3 activation” value was 157 pM and the “Top % of inhibition, STAT3 activation” value turned out to be 100%. Moreover, the binding result with human IL-12 protein [3] is given as “no binding”. Further, in experiment [4], the binding result is “no binding”. For the same molecule, in experiment [7], the Kd was 0.0572 nM, the off-rate constant (koff) stood at 0.000143 s⁻¹ and the kon is 2.5e+06 M⁻¹ s⁻¹.

B5: Hu-4 18006B* (recombinant, mIgG2a) (antibody, V domains shown)
VH: QVHLVQSGAEVKKPGASVKVSCKASGYTFSSYGINWVRQAPGQGLEWMGWISAYSGNTDYSQHLQGRVTMTTDTSTNTAYMELRSLRSDDTAVYYCARASANWYDYFDPWGQGTLVTVSS
VL: EIVLTQSPDFQSVTPKEKVTITCRASQTIGGSLHWYQQKPDQSPKLLITYASQSFSGVPSRFSGSGSGTDFTLTIHSLEAEDAATYYCHQSSILPYTFGQGTKLEIK
In the case of B5, in experiment [1], the “IC50 pM, STAT3 activation” value came to 265 pM and the “Top % of inhibition, STAT3 activation” value was determined as 100%. In addition, the binding result with human IL-12 protein [3] was “no binding”. Also, in experiment [4], the binding result is recorded as “no binding”.

B6: Hu-6 18006B* (recombinant mIgG2a) (antibody, V domains shown)
VH: QVQLVQSGAEVKKPGASVKVSCKTSGYTFTYYGISWVRQAPGQGLEWMGLISAYNGNTNYGQKVQGRVTMTTDTSTSTAYMELRSLRSDDTAVYYCVTENINWRDAFDIWGQGTMVTVSS
VL: EIVLTQSPDFQSVTPKEKVTITCRASQTIGSSLHWYQQKPDQSPKLLIKYASQSISGVPSRFSGSGSGTDFTLTINSLEAEDAAAYYCHQSSSLPYTFGQGTKLEIK
For the molecule B6, in experiment [1], the “IC50 pM, STAT3 activation” value came to 35.2 pM and the “Top % of inhibition, STAT3 activation” value is 99%. In experiment [2], the Kd stood at 0.0384 nM, the dissociation rate constant (koff) is 0.000171 s⁻¹ and the kon was 4.44e+06 M⁻¹ s⁻¹. In addition, the binding result with human IL-12 protein [3] is recorded as “no binding”. In addition, the binding result in experiment [4] was “no binding”.

B7: Hu-2 18006B (antibody, V domains shown)
VH: QVQLVQSGAEVKKPGASVKVSCKASGYTFTTYGISWVRQAPGQGLEWMGWISAYNGNTKYAQKLQGRVTMTTDTSTSTAYMELRSLRSDDTAVYYCAREWRAFYYYGLDVWGQGTTVTVSS
VL: DIVMTQTPLSSPVTLGQPASISCRSSQSLEHSDGNTYLSWLQQRPNQPPRLLIYKVSNRFSGVPDRFSGSGAGTDFTLKISRVEAEDVGVYYCTQATQFPLTFGGGTKVEIK
notes: Purified from hybridoma (Trianni mice); also called H-2 1800B (mIgG1)
Take B7: in experiment [1], the “IC50 pM, STAT3 activation” value came to 158 pM and the “Top % of inhibition, STAT3 activation” value was 97%. For the same molecule, in experiment [2], the equilibrium dissociation constant (Kd) was 0.0416 nM, the koff was determined as 6.54e-05 s⁻¹ and the kon was 1.57e+06 M⁻¹ s⁻¹. In addition, the binding result with human IL-12 protein [3] is recorded as “no binding”. Besides, the binding result in experiment [4] was “no binding”.
